Reference: patent US20180155451A1 (published 2018)

T1: FcγRIIa R (extracellular domain with a His tag at the C terminus) (human, UniProt P12318 34-217)
T1 construct: extracellular domain; expressed in FreeStyle293 cells; also called FcgRIIa R; FcγRIIa type R; not shown: His tag at the C terminus
T1 sequence (looked up): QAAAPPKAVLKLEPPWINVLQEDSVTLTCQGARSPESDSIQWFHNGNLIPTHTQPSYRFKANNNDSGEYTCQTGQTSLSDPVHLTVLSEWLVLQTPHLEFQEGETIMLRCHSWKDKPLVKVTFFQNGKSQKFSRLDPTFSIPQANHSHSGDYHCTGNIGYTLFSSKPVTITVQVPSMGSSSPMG

B1: GpH7-B3 variant P238_04F/GpL16-k0 (antibody, human IgG1, kappa)
heavy: not shown
light: DIVMTQSPLSLPVTPGEPASISCQASESLVHSNRNTYLHWYLQKPGQSPQLLIYKVSNRFSGVPDRFSGSGSGTDFTLKISRVEAEDVGVYYCSQNTHVPPTFGQGTKVEIERTVAAPSVFIFPPSDEQLKSGTASVVCLLNNFYPREAKVQWKVDNALQSGNSQESVTEQDSKDSTYSLSSTLTLSKADYEKHKVYACEVTHQGLSSPVTKSFNRGEC
notes: homodimerized; mutation in both H chains; also called Ho Ab
B2: GpH7-A5/GpH7-B3 variant S337_02A/GpL16-k0 (antibody, human IgG1, kappa)
heavy 1: not shown
heavy 2: not shown
light: B1 light
notes: heterodimerized; mutation in one H chain; also called He Ab
B3: GpH7-A5/GpH7-B3 variant K326_15Y/GpL16-k0 (antibody, human IgG1, kappa)
heavy 1: not shown
heavy 2: not shown
light: B1 light
notes: as for B2
B4: GpH7-B3 variant S337_07I/GpL16-k0 (antibody, human IgG1, kappa)
heavy: not shown
light: B1 light
notes: as for B1
B5: GpH7-A5/GpH7-B3 variant K326_03V/GpL16-k0 (antibody, human IgG1, kappa)
heavy 1: not shown
heavy 2: not shown
light: B1 light
notes: as for B2
B6: GpH7-A5/GpH7-B3 variant K334_13S/GpL16-k0 (antibody, human IgG1, kappa)
heavy 1: not shown
heavy 2: not shown
light: B1 light
notes: as for B2
B7: GpH7-B3 variant S239_18N/GpL16-k0 (antibody, human IgG1, kappa)
heavy: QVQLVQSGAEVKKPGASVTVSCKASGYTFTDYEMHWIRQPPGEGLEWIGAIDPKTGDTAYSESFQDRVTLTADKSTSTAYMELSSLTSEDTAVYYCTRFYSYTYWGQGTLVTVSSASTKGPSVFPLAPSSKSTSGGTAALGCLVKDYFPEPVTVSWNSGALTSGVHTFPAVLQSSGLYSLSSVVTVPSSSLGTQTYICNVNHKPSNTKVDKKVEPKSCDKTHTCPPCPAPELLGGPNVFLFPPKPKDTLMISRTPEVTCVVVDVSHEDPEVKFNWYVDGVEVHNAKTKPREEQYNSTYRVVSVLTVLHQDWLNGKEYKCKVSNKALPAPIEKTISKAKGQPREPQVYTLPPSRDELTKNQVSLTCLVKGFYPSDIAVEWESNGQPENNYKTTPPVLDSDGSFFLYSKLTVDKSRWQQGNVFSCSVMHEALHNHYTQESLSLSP
light: B1 light
notes: as for B1
B8: GpH7-B3 variant P331_15Y/GpL16-k0 (antibody, human IgG1, kappa)
heavy: not shown
light: B1 light
notes: as for B1
B9: GpH7-B3 variant S267_03V/GpL16-k0 (antibody, human IgG1, kappa)
heavy: not shown
light: B1 light
notes: as for B1
B10: GpH7-A5/GpH7-B3 variant A327_10E/GpL16-k0 (antibody, human IgG1, kappa)
heavy 1: not shown
heavy 2: not shown
light: B1 light
notes: as for B2
B11: GpH7-A5/GpH7-B3 variant I336_08L/GpL16-k0 (antibody, human IgG1, kappa)
heavy 1: not shown
heavy 2: not shown
light: B1 light
notes: as for B2
B12: GpH7-A5/GpH7-B3 variant K334_02A/GpL16-k0 (antibody, human IgG1, kappa)
heavy 1: not shown
heavy 2: not shown
light: B1 light
notes: as for B2
B13: GpH7-B3 variant P271_08L/GpL16-k0 (antibody, human IgG1, kappa)
heavy: not shown
light: B1 light
notes: as for B1
B14: GpH7-A5/GpH7-B3 variant K326_20W/GpL16-k0 (antibody, human IgG1, kappa)
heavy 1: not shown
heavy 2: not shown
light: B1 light
notes: as for B2
B15: GpH7-B3 variant P331_04F/GpL16-k0 (antibody, human IgG1, kappa)
heavy: not shown
light: B1 light
notes: as for B1
B16: GpH7-B3 variant T335_10E/GpL16-k0 (antibody, human IgG1, kappa)
heavy: not shown
light: B1 light
notes: as for B1
B17: GpH7-A5/GpH7-B3 variant I332_06M/GpL16-k0 (antibody, human IgG1, kappa)
heavy 1: not shown
heavy 2: not shown
light: B1 light
notes: as for B2
B18: GpH7-B3 variant P331_16H/GpL16-k0 (antibody, human IgG1, kappa)
heavy: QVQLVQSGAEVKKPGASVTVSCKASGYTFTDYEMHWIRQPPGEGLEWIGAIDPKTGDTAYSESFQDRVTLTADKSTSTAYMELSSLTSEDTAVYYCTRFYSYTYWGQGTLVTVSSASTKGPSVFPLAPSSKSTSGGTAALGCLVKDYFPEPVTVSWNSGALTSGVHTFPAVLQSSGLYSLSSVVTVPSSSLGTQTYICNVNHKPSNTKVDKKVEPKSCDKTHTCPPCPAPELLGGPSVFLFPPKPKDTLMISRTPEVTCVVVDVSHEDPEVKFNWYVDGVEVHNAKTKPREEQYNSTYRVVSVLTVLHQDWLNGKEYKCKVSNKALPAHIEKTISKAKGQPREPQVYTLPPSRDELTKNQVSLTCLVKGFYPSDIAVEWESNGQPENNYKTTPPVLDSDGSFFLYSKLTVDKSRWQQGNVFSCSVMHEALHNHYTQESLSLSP
light: B1 light
notes: as for B1
B19: GpH7-A5/GpH7-B3 variant G237_04F/GpL16-k0 (antibody, human IgG1, kappa)
heavy 1: not shown
heavy 2: not shown
light: B1 light
notes: as for B2
B20: GpH7-A5/GpH7-B3 variant A327_09D/GpL16-k0 (antibody, human IgG1, kappa)
heavy 1: not shown
heavy 2: not shown
light: B1 light
notes: as for B2
B21: GpH7-B3 variant T335_02A/GpL16-k0 (antibody, human IgG1, kappa)
heavy: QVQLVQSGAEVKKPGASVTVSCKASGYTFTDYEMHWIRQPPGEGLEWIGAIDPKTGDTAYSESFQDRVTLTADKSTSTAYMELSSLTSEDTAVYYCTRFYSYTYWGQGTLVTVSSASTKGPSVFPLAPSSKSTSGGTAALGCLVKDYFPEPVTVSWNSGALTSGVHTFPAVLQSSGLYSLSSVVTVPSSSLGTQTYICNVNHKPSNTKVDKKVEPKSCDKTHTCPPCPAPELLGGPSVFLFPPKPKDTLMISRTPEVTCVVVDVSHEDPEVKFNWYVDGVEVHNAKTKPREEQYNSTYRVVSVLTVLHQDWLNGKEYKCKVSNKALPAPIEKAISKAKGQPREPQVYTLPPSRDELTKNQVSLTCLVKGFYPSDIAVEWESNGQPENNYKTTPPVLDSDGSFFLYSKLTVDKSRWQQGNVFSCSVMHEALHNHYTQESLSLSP
light: B1 light
notes: as for B1
B22: GpH7-B3 variant S337_10E/GpL16-k0 (antibody, human IgG1, kappa)
heavy: not shown
light: B1 light
notes: as for B1
B23: GpH7-B3 variant S239_10E/GpL16-k0 (antibody, human IgG1, kappa)
heavy: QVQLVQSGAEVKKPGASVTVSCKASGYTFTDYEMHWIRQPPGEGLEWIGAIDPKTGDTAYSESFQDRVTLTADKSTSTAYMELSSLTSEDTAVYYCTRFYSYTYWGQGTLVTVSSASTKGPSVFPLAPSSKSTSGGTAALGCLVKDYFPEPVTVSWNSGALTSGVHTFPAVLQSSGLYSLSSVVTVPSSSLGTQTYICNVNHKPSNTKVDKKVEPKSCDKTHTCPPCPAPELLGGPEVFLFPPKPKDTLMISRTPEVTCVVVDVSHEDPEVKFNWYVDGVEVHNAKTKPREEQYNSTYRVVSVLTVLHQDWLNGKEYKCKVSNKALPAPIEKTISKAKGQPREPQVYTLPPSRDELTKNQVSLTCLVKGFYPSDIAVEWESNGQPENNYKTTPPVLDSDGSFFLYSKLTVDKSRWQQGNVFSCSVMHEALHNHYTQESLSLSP
light: B1 light
notes: as for B1
B24: GpH7-B3 variant T335_13S/GpL16-k0 (antibody, human IgG1, kappa)
heavy: not shown
light: B1 light
notes: as for B1
B25: GpH7-B3 variant S337_16H/GpL16-k0 (antibody, human IgG1, kappa)
heavy: not shown
light: B1 light
notes: as for B1
B26: GpH7-B3 variant T335_07I/GpL16-k0 (antibody, human IgG1, kappa)
heavy: not shown
light: B1 light
notes: as for B1
B27: GpH7-B3 variant S324_06M/GpL16-k0 (antibody, human IgG1, kappa)
heavy: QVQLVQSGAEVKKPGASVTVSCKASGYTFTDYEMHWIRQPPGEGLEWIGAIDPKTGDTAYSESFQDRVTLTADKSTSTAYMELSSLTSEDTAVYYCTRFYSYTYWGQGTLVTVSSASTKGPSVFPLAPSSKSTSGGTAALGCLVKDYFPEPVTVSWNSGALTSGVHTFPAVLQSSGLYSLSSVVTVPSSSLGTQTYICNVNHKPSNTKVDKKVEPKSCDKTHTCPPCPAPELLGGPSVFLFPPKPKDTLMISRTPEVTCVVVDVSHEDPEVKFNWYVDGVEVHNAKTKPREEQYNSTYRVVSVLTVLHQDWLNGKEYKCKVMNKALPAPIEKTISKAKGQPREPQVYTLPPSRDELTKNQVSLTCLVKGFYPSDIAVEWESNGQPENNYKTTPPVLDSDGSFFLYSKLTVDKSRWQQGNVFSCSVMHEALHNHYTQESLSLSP
light: B1 light
notes: as for B1
B28: GpH7-B3 variant S267_09D/GpL16-k0 (antibody, human IgG1, kappa)
heavy: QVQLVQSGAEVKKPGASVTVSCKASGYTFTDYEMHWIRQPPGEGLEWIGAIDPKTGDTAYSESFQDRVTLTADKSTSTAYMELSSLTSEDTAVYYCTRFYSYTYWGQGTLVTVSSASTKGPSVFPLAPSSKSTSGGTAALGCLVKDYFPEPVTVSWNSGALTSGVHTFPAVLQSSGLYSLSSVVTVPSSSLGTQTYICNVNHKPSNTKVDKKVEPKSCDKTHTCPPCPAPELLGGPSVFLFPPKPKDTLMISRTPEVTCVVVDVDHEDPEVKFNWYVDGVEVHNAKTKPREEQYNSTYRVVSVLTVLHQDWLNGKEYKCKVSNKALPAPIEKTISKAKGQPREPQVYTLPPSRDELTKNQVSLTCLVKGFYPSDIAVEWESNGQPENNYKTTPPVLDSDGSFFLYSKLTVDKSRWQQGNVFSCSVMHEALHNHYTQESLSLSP
light: B1 light
notes: as for B1
B29: GpH7-B3 variant S337_19Q/GpL16-k0 (antibody, human IgG1, kappa)
heavy: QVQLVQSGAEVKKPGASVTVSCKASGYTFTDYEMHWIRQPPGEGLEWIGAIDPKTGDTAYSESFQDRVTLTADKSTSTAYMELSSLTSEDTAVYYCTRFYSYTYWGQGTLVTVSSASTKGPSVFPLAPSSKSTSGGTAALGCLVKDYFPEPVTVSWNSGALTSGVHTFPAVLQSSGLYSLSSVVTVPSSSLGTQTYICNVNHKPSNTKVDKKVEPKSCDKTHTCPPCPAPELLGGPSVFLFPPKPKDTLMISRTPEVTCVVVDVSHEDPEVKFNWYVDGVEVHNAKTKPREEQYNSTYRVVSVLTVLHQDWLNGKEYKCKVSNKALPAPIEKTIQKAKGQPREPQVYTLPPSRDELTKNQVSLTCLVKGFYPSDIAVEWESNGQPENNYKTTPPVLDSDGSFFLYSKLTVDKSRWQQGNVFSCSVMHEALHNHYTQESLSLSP
light: B1 light
notes: as for B1
B30: GpH7-B3 variant S239_08L/GpL16-k0 (antibody, human IgG1, kappa)
heavy: not shown
light: B1 light
notes: as for B1
B31: GpH7-A5/GpH7-B3 variant K326_08L/GpL16-k0 (antibody, human IgG1, kappa)
heavy 1: not shown
heavy 2: not shown
light: B1 light
notes: as for B2
B32: GpH7-B3 variant S337_09D/GpL16-k0 (antibody, human IgG1, kappa)
heavy: not shown
light: B1 light
notes: as for B1
B33: GpH7-A5/GpH7-B3 variant K334_08L/GpL16-k0 (antibody, human IgG1, kappa)
heavy 1: not shown
heavy 2: not shown
light: B1 light
notes: as for B2
B34: GpH7-A5/GpH7-B3 variant K326_04F/GpL16-k0 (antibody, human IgG1, kappa)
heavy 1: not shown
heavy 2: not shown
light: B1 light
notes: as for B2
B35: GpH7-B3 variant S337_03V/GpL16-k0 (antibody, human IgG1, kappa)
heavy: not shown
light: B1 light
notes: as for B1
B36: GpH7-B3 variant S267_19Q/GpL16-k0 (antibody, human IgG1, kappa)
heavy: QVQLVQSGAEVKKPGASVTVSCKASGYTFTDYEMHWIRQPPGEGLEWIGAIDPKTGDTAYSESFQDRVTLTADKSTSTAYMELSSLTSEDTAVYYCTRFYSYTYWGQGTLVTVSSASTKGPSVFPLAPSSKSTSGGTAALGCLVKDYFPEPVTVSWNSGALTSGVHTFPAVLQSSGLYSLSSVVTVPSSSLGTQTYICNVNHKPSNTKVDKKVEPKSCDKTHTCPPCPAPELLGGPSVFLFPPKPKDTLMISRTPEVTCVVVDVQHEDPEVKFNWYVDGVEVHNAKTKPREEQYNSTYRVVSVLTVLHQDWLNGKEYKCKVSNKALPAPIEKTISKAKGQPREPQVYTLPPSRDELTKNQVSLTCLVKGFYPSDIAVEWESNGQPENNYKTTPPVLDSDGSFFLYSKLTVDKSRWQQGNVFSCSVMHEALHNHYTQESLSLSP
light: B1 light
notes: as for B1
B37: GpH7-A5/GpH7-B3 variant G237_20W/GpL16-k0 (antibody, human IgG1, kappa)
heavy 1: not shown
heavy 2: not shown
light: B1 light
notes: as for B2
B38: GpH7-B3 variant P331_02A/GpL16-k0 (antibody, human IgG1, kappa)
heavy: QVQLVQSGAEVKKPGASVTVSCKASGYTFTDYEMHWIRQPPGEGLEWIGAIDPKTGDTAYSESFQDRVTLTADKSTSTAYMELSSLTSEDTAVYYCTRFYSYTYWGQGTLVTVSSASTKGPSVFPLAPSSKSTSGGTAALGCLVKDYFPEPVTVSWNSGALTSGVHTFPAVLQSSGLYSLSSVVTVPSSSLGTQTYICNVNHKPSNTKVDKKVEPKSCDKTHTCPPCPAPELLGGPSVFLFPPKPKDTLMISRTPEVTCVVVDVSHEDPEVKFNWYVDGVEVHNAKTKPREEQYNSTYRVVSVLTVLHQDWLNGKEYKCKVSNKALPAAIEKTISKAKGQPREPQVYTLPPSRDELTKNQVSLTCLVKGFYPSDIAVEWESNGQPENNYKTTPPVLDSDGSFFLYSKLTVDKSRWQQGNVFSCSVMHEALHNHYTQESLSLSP
light: B1 light
notes: as for B1
B39: GpH7-B3 variant S337_20W/GpL16-k0 (antibody, human IgG1, kappa)
heavy: not shown
light: B1 light
notes: as for B1
B40: GpH7-B3 variant S267_06M/GpL16-k0 (antibody, human IgG1, kappa)
heavy: not shown
light: B1 light
notes: as for B1
B41: GpH7-A5/GpH7-B3 variant K334_10E/GpL16-k0 (antibody, human IgG1, kappa)
heavy 1: not shown
heavy 2: not shown
light: B1 light
notes: as for B2
B42: GpH7-A5/GpH7-B3 variant A330_01G/GpL16-k0 (antibody, human IgG1, kappa)
heavy 1: not shown
heavy 2: not shown
light: B1 light
notes: as for B2
B43: GpH7-A5/GpH7-B3 variant A330_12R/GpL16-k0 (antibody, human IgG1, kappa)
heavy 1: not shown
heavy 2: not shown
light: B1 light
notes: as for B2
B44: GpH7-B3 variant S337_18N/GpL16-k0 (antibody, human IgG1, kappa)
heavy: not shown
light: B1 light
notes: as for B1
B45: GpH7-A5/GpH7-B3 variant K334_04F/GpL16-k0 (antibody, human IgG1, kappa)
heavy 1: not shown
heavy 2: not shown
light: B1 light
notes: as for B2
B46: GpH7-B3 variant T335_05P/GpL16-k0 (antibody, human IgG1, kappa)
heavy: not shown
light: B1 light
notes: as for B1
B47: GpH7-B3 variant S298_08L/GpL16-k0 (antibody, human IgG1, kappa)
heavy: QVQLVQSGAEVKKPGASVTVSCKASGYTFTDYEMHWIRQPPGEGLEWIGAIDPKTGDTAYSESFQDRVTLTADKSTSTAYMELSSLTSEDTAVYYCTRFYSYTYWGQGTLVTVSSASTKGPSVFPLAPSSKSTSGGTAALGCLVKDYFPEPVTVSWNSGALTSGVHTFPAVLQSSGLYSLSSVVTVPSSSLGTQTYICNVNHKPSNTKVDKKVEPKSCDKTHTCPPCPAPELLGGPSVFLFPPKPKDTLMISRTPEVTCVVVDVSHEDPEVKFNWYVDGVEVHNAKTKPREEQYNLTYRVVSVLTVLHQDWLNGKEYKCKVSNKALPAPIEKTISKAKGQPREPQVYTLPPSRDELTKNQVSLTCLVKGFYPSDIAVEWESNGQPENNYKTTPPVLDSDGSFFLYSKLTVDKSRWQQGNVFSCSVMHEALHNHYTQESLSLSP
light: B1 light
notes: as for B1
B48: GpH7-A5/GpH7-B3 variant H268_01G/GpL16-k0 (antibody, human IgG1, kappa)
heavy 1: not shown
heavy 2: not shown
light: B1 light
notes: as for B2
B49: GpH7-A5/GpH7-B3 variant K326_07I/GpL16-k0 (antibody, human IgG1, kappa)
heavy 1: not shown
heavy 2: not shown
light: B1 light
notes: as for B2
B50: GpH7-A5/GpH7-B3 variant K334_19Q/GpL16-k0 (antibody, human IgG1, kappa)
heavy 1: not shown
heavy 2: not shown
light: B1 light
notes: as for B2
B51: GpH7-B3 variant P331_20W/GpL16-k0 (antibody, human IgG1, kappa)
heavy: not shown
light: B1 light
notes: as for B1
B52: GpH7-A5/GpH7-B3 variant K334_05P/GpL16-k0 (antibody, human IgG1, kappa)
heavy 1: not shown
heavy 2: not shown
light: B1 light
notes: as for B2
B53: GpH7-B3 variant S337_15Y/GpL16-k0 (antibody, human IgG1, kappa)
heavy: not shown
light: B1 light
notes: as for B1
B54: GpH7-B3 variant S337_06M/GpL16-k0 (antibody, human IgG1, kappa)
heavy: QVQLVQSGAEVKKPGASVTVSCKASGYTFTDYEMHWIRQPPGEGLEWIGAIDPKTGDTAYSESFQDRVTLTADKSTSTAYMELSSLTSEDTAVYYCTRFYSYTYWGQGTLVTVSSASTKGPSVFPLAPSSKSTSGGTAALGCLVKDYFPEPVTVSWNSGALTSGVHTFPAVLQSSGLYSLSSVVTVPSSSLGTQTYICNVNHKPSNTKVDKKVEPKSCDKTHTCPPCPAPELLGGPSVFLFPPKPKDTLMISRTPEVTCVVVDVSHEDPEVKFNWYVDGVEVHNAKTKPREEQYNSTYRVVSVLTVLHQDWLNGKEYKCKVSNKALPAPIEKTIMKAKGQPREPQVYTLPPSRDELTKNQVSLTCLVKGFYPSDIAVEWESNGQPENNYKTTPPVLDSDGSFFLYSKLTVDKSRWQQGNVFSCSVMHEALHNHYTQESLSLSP
light: B1 light
notes: as for B1

Target: T1, FcγRIIa R (extracellular domain with a …)
Assay: SPR Biacore, relative binding

Binder	Ho/Con_2aR	He/Con_2aR
B1	146 % of GpH7-B3/GpL16-k0 (=100)	–
B2	–	105 % of GpH7-A5/GpH7-B3/GpL16-k0 (=100)
B3	–	136 % of GpH7-A5/GpH7-B3/GpL16-k0 (=100)
B4	103 % of GpH7-B3/GpL16-k0 (=100)	–
B5	–	141 % of GpH7-A5/GpH7-B3/GpL16-k0 (=100)
B6	–	109 % of GpH7-A5/GpH7-B3/GpL16-k0 (=100)
B7	103 % of GpH7-B3/GpL16-k0 (=100)	–
B8	105 % of GpH7-B3/GpL16-k0 (=100)	–
B9	115 % of GpH7-B3/GpL16-k0 (=100)	–
B10	–	110 % of GpH7-A5/GpH7-B3/GpL16-k0 (=100)
B11	–	110 % of GpH7-A5/GpH7-B3/GpL16-k0 (=100)
B12	–	105 % of GpH7-A5/GpH7-B3/GpL16-k0 (=100)
B13	102 % of GpH7-B3/GpL16-k0 (=100)	–
B14	–	131 % of GpH7-A5/GpH7-B3/GpL16-k0 (=100)
B15	106 % of GpH7-B3/GpL16-k0 (=100)	–
B16	109 % of GpH7-B3/GpL16-k0 (=100)	–
B17	–	109 % of GpH7-A5/GpH7-B3/GpL16-k0 (=100)
B18	100 % of GpH7-B3/GpL16-k0 (=100)	–
B19	–	126 % of GpH7-A5/GpH7-B3/GpL16-k0 (=100)
B20	–	124 % of GpH7-A5/GpH7-B3/GpL16-k0 (=100)
B21	102 % of GpH7-B3/GpL16-k0 (=100)	–
B22	110 % of GpH7-B3/GpL16-k0 (=100)	–
B23	122 % of GpH7-B3/GpL16-k0 (=100)	–
B24	102 % of GpH7-B3/GpL16-k0 (=100)	–
B25	107 % of GpH7-B3/GpL16-k0 (=100)	–
B26	107 % of GpH7-B3/GpL16-k0 (=100)	–
B27	118 % of GpH7-B3/GpL16-k0 (=100)	–

Binder	Ho/Con_2aR	He/Con_2aR
B28	167 % of GpH7-B3/GpL16-k0 (=100)	–
B29	102 % of GpH7-B3/GpL16-k0 (=100)	–
B30	106 % of GpH7-B3/GpL16-k0 (=100)	–
B31	–	137 % of GpH7-A5/GpH7-B3/GpL16-k0 (=100)
B32	114 % of GpH7-B3/GpL16-k0 (=100)	–
B33	–	106 % of GpH7-A5/GpH7-B3/GpL16-k0 (=100)
B34	–	135 % of GpH7-A5/GpH7-B3/GpL16-k0 (=100)
B35	102 % of GpH7-B3/GpL16-k0 (=100)	–
B36	110 % of GpH7-B3/GpL16-k0 (=100)	–
B37	–	138 % of GpH7-A5/GpH7-B3/GpL16-k0 (=100)
B38	102 % of GpH7-B3/GpL16-k0 (=100)	–
B39	105 % of GpH7-B3/GpL16-k0 (=100)	–
B40	102 % of GpH7-B3/GpL16-k0 (=100)	–
B41	–	106 % of GpH7-A5/GpH7-B3/GpL16-k0 (=100)
B42	–	109 % of GpH7-A5/GpH7-B3/GpL16-k0 (=100)
B43	–	104 % of GpH7-A5/GpH7-B3/GpL16-k0 (=100)
B44	103 % of GpH7-B3/GpL16-k0 (=100)	–
B45	–	110 % of GpH7-A5/GpH7-B3/GpL16-k0 (=100)
B46	104 % of GpH7-B3/GpL16-k0 (=100)	–
B47	101 % of GpH7-B3/GpL16-k0 (=100)	–
B48	–	124 % of GpH7-A5/GpH7-B3/GpL16-k0 (=100)
B49	–	147 % of GpH7-A5/GpH7-B3/GpL16-k0 (=100)
B50	–	109 % of GpH7-A5/GpH7-B3/GpL16-k0 (=100)
B51	102 % of GpH7-B3/GpL16-k0 (=100)	–
B52	–	103 % of GpH7-A5/GpH7-B3/GpL16-k0 (=100)
B53	100 % of GpH7-B3/GpL16-k0 (=100)	–
B54	101 % of GpH7-B3/GpL16-k0 (=100)	–
